From patent US20090155236A1, “Peptide sequence for modulation of delta protein kinase c” (NATIONAL INSTITUES OF HEALTH (NIH), U.S. DEPT OF HEALTH AND …, priority 2004, published 2009) come the findings set out here.

The assay has as its target recombinant full-length delta PKC (rat). Briefly: ELISA, both in the absence and in the presence of calcium.

B1: annexin I (protein)
chain: AMVSEFLKQAWFIENEEQEYVQTVKSSKGGPGSAVSPYPTFNPSSDVAALHKAIMVKGVDEATIIDILTKRNNAQRQQIKAAYLQETGKPLDETLKKALTGHLEEVVLALLKTPAQFDADELRAAMKGLGTDEDTLIEILASRTNKEIRDINRVYREELKRDLAKDITSDTSGDFRNALLSLAKGDRSEDFGVNEDLADSDARALYEAGERRKGTDVNVFNTILTTRSYPQLRRVFQKYTKYSKHDMNKVLDLELKGDIEKCLTAIVKCATSKPAFFAEKLHQAMKGVGTRHKALIRIMVSRSEIDMNDIKAFYQKMYGISLCQAILDETKGDYEKILVALCGGN
B1: the percent binding came out at 70%.
